Results as given in patent US20160176955A1 (LEIDOS, published 2016).

B1: monoclonal antibody (mAb) 5D5 (antibody, V domains shown)
VH: QVHLQQSGGEVARPGASVKLSCKASGYTFTGYGLSWVKQRTGQGLEWIGEIYPRSGNTYYNEKFKGKATLTADKSSSTAYMELRSLTSEDSAVYFCARSWGNSSFVYWGQGTLVTVSA
VL: SIVMTQTPKFLLVSAGDRVTITCKASQSVTNDVTWYQQKPGQSPKLLIYYASNRYTGVPDRFTGSGYGTDFTFTISTVQAEDLAVYFCQQDYSSPFTFGSGTKLEIKR
notes: Murine IgG1/kappa hybridoma antibody; also called 5D5 mAb; MRA-1242
B2: peptide 10 (amino acids 91-106 of CSP) (peptide)
peptide: HKKLKQPADGNPDP
B3: peptide 8 (amino acids 71-85 of CSP) (peptide)
peptide: SLGENDDGNNEDNEK

What was measured:
[1] = molecular target: B1; assay: competitive ELISA, competitor against rCSP for binding to mAb 5D5; row 0.01 µg/ml
[2] = molecular target: B1; assay: competitive ELISA, competitor against rCSP for binding to mAb 5D5; row 0.001 µg/ml
[3] = molecular target: B3; assay: indirect ELISA, 15-mer peptide mapping
[4] = molecular target: B2; assay: indirect ELISA, 15-mer peptide mapping

Row | Binder | ELISA signal (name and unit not given) [1] | ELISA signal (name and unit not given) [2] | binding result [3] | binding result [4]
1 | DGNNEDNEK [peptide A] | 3.57 | 1.05 |  | 
2 | B1 |  |  | no binding | no binding
3 | NEKLRKPKHK [peptide C] | 3.49 | 0.976 |  | 
4 | EDNEKLRKPKHKKLK [peptide 9 (amino acids 81-95 of CSP)] | 0.246 | 0.19 |  | 
5 | B2 | 3.34 | 0.92 |  | 
6 | NEDNEKLRK [peptide B] | 3.51 | 1.03 |  | 
7 | B3 | 3.35 | 0.952 |  | 
8 | PKHKKLKQPAD [peptide E] | 3.39 | 0.925 |  | 
9 | LRKPKHKKLKQ [peptide D] | 3.45 | 0.989 |  | 
